Test results reported in the RNAGym collection of RNA variant scans (doi:10.7554/elife.80360).

B1: Hairpin Ribozyme (parent)
chain: GUCCUCUUUCACGUGCGCGUGAAAGAGAGAAGUGAACCAGAGAAACACACGUUGUGGUAUAUUACCUGGUA

Variants of: B1
Experiment: self-cleavage, relative activity (ratio to wild type); higher = more cleavage; co-transcriptional

Row | Variant | self-cleavage
1 | G19U C65A | 0.733
2 | U20C A22G | 0.877
3 | C4A C18G | 0.198
4 | A31U G69C | 0.111
5 | U9G G54C | 0.341
6 | U7G A36G | 0.828
7 | U5C C48G | 0.0712
8 | G27U G51U | 0.402
9 | U53G G54C | 0.551
10 | C18U C65G | 0.27
11 | G15C C46A | 0.136
12 | C66U G69C | 0.198
13 | A24G C38G | 0.197
14 | G34U G68U | 0.95
15 | A31U G32A | 0.102
16 | G15A G42U | 0.301
17 | A26C A36G | 0.846
18 | A61G | 0.183
19 | A43G U53C | 0.107
20 | A22G U67C | 0.231
21 | U20C A35U | 0.82
22 | A26U G34C | 1.51
23 | C48A C50G | 0.0517
24 | C16G G21C | 0.285

Row | Variant | self-cleavage
25 | U63G A64G | 0.134
26 | A59U A61G | 0.166
27 | G19A A30C | 0.146
28 | G25C A64G | 0.4
29 | C18A U52C | 1.05
30 | G15C A44G | 0.146
31 | G13U G69U | 0.246
32 | U7C A71U | 0.592
33 | A45U C46G | 0.241
34 | C12A G27U | 0.249
35 | C10G G27U | 0.195
36 | U5A U52C | 0.274
37 | C6G A43G | 0.0944
38 | C38A G56U | 0.179
39 | A22U G25U | 0.253
40 | C3A U53A | 0.662
41 | A28U U60G | 0.3
42 | G1A A44G | 0.167
43 | U63C C65A | 0.106
44 | G13A U52C | 0.625
45 | C3A G34U | 1.34
46 | A36U G51A | 0.508
47 | U7G G40U | 0.214
48 | U2C U5A | 0.118

Row | Variant | self-cleavage
49 | G51U U70A | 1.1
50 | U9C C48G | 0.145
51 | G15A U53A | 0.862
52 | A23C U52G | 0.489
53 | A24G U62G | 0.0667
54 | U8G A49G | 0.264
55 | U9A U60C | 0.993
56 | G13U A30G | 0.191
57 | A26C A71C | 1.08
58 | U8A A59C | 0.165
59 | C6U C66A | 0.11
60 | G19A A35G | 1.01
61 | G29A C46G | 0.0584
62 | U7G G15C | 0.836
63 | C3A U52G | 0.538
64 | U8G A61G | 0.0213
65 | C16A U53G | 0.877
66 | C18U G68A | 0.224
67 | U7G C37A | 0.335
68 | G54U U62C | 0.172
69 | G29A C65A | 0.0759
70 | U14G C46A | 0.113
71 | U52G U62C | 0.126
72 | C4G G56C | 0.111

Row | Variant | self-cleavage
73 | G17U U53A | 0.841
74 | C37U G56C | 0.198
75 | G57C C66U | 0.101
76 | U8G G51A | 0.739
77 | C46A G51C | 0.0397
78 | U20A C50A | 0.423
79 | U20C G56A | 0.255
80 | G51A U58C | 1.09
81 | U9G A43C | 0.0922
82 | G42C U52G | 0.237
83 | A35U A41U | 1.41
84 | U20A A24U | 0.732
85 | G17C A31G | 0.425
86 | U58C G68A | 0.301
87 | A35U A49C | 0.17
88 | U55C A71C | 0.596
89 | C48A U67A | 0.11
90 | C16G C50G | 0.157
91 | C46U U52A | 0.179
92 | A24G A64U | 0.135
93 | C18A | 1.06
94 | U8A C50U | 0.311
95 | C46A C65G | 0.146
96 | C6U U53C | 0.704

Row | Variant | self-cleavage
97 | G27C G34U | 0.779
98 | A35G A41G | 0.814
99 | C12U G69C | 0.367
100 | C12U A44C | 0.184
101 | A11C A23G | 0.642
102 | C10A G17C | 0.489
103 | A31U A39U | 0.12
104 | U2G U5C | 0.271
105 | C3G A39G | 0.108
106 | C10G A31U | 0.084
107 | A31U A44G | 0.215
108 | A36U C46G | 0.0439
109 | C3U G25A | 0.205
110 | A49C G54U | 0.216
111 | U20A G34A | 0.993
112 | G1U G68A | 0.124
113 | U58C U62C | 0.369
114 | U58C U62G | 0.242
115 | C12A G42A | 0.168
116 | U52C C66G | 0.244
117 | G15C A30U | 0.293
118 | U2A A45U | 0.0686
119 | G25A C66A | 0.15
120 | U5A A61G | 0.0553

Row | Variant | self-cleavage
121 | U5C A61U | 0.105
122 | U2C A24U | 0.107
123 | G25U A39U | 0.242
124 | U9C A35G | 0.688
125 | C10A A28U | 0.483
126 | G19A G25U | 0.441
127 | G29A U53G | 0.0705
128 | G17A A31C | 0.144
129 | A11G A31G | 0.728
130 | G29U G54C | 0.12
131 | U7A G21A | 0.706
132 | A30G U52G | 0.186
133 | C38G A64U | 0.112
134 | A26G U67A | 0.148
135 | A11C A47C | 0.267
136 | A45C A47U | 0.212
137 | C18U A35C | 0.968
138 | A44C U62G | 0.304
139 | G1C U5C | 0.361
140 | A39U C50G | 0.0689
141 | G21C A47U | 0.181
142 | G13A G25A | 0.484
143 | U9A A39C | 0.423
144 | U33C C37G | 0.0717

Row | Variant | self-cleavage
145 | G1U C12U | 0.17
146 | C12U G19A | 1.02
147 | C18G A31C | 0.0659
148 | C10G A36C | 0.498
149 | U7G G21U | 0.453
150 | C16A | 0.903
151 | C16G | 0.774
152 | G13U G32C | 0.232
153 | G1U A41U | 0.0959
154 | A28C C37G | 0.199
155 | U2A G29A | 0.0918
156 | U9A C66A | 0.166
157 | A35G A59G | 0.266
158 | C4U C37G | 0.147
159 | G1C U20G | 0.0342
160 | G17C G51U | 0.679
161 | G19A G57A | 0.152
162 | C12G U62G | 0.21
163 | A30U C38U | 0.232
164 | A30U C38A | 0.0692
165 | A35C A36C | 0.517
166 | U62C A64U | 0.187
167 | C12U C38A | 0.143
